From PMC4490372, “Architecture of TFIIIC and its role in RNA polymerase III pre-initiation complex assembly” (Nature Communications, 2015)

B1: GST-τ138 (641–693) (domain or fragment, S. cerevisiae, UniProt P34111 641-693, looked up)
chain: SKKATFTDVIHDTEIYFFDQTEKNRFHRGKKSVERIRKFQNRQKNAKIKASDD
notes: also called GST-tagged τ138; source: E. coli BL21 (DE3) Gold, purified (GST column, S200 SEC)
B2: τ55 (Tfc7), τA subunit of endogenous S. cerevisiae TFIIIC (natural protein, UniProt Q12415 1-435, looked up)
chain: MVVNTIYIARHGYRSNWLPEGPYPDPLTGIDSDVPLAEHGVQQAKELAHYLLSLDNQPEAAFASPFYRCLETVQPIAKLLEIPVYLERGIGEWYRPDRKPVIPVPAGYEILSKFFPGVISQEWDSTLTPNEKGETEQEMYMRFKKFWPLFIERVEKEYPNVECILLVTHAASKIALGMSLLGYDNPRMSLNENGDKIRSGSCSLDKYEILKKSYDTIDETDDQTSFTYIPFSDRKWVLTMNGNTEFLSSGEEMNWNFDCVAEAGSDADIKKRQMTKKTSSPIPEADDQTEVETVYISVDIPSGNYKERTEIAKSAILQYSGLETDAPLFRIGNRLYEGSWERLVGTELAFPNAAHVHKKTAGLLSPTEENETTNAGQSKGSSTANDPNIQIQEEDVGLPDSTNTSRDHTGDKEEVQSEKIYRIKERIVLSNVRPM
notes: τ55 (Tfc7), subunit of S. cerevisiae TFIIIC, endogenous subunit in the purified complex; source: endogenous, purified from S. cerevisiae strain SC2342 as part of TFIIIC (TAP tag on τ60)

Legend:
Conditions in all cases: both partners purified
[1] = biological target: T1, τ131 (123–566) E472K (S. cerevisiae, UniProt P33339 123-566, E472K); assay: pull-down; 15 μg GST-τ138 (641–693) on Glutathione Sepharose 4B; 900 nM wild-type or mutant τ131; 50 mM Tris pH 7.5, 150 mM NaCl, 2 mM DTT, 0.1% Tween20; 4 °C, 4 h
T1 construct: source: E. coli, purified by the same method as the wild type; not shown: His6, N-terminal, cleaved
T1 sequence (looked up): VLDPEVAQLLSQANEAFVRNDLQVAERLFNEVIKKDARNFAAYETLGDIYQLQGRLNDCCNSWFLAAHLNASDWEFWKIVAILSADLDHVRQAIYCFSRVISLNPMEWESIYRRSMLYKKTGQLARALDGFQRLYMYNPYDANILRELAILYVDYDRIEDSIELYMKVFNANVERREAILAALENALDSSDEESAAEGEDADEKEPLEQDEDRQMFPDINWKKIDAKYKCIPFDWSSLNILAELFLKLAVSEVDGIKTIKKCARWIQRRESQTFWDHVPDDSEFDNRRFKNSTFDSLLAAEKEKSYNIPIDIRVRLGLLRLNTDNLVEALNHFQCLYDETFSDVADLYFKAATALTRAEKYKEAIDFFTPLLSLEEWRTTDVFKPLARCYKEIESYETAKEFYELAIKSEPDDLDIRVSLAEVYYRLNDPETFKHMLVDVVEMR

[2] = biological target: T2, τ131 (123–566) E497K (S. cerevisiae, UniProt P33339 123-566, E497K); assay: as above
T2 construct: source: E. coli, purified by the same method as the wild type; not shown: His6, N-terminal, cleaved
T2 sequence (looked up): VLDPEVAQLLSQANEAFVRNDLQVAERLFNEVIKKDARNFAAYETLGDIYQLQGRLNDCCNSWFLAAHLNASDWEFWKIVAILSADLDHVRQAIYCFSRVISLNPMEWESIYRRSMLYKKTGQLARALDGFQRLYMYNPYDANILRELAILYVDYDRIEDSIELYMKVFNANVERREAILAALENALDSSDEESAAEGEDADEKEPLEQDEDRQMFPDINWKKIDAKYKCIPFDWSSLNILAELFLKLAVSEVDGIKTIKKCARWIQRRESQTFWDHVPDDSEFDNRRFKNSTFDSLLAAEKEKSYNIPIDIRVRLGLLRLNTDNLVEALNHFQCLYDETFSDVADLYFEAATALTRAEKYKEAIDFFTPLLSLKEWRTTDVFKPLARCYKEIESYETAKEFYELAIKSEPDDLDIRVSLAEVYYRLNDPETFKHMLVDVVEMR

[3] = biological target: T3, τ131 (123–566) E498K (S. cerevisiae, UniProt P33339 123-566, E498K); assay: as above
T3 construct: source: E. coli, purified by the same method as the wild type; not shown: His6, N-terminal, cleaved
T3 sequence (looked up): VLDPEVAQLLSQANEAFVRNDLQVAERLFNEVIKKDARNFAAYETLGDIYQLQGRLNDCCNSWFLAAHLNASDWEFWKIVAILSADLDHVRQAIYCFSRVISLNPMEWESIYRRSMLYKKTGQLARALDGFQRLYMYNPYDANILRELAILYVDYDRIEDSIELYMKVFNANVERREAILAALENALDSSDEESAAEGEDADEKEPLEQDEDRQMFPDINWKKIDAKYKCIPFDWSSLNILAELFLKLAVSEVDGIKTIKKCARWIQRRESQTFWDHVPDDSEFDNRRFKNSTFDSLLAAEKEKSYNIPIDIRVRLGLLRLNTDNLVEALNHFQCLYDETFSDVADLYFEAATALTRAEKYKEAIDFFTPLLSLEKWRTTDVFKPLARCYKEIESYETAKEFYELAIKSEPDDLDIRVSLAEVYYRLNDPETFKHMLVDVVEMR

[4] = biological target: T4, τ95 (Tfc1), τA subunit of endogenous S. cerevisiae TFIIIC (S. cerevisiae, UniProt P32367 1-649); assay: cross-linking; XL-MS: purified endogenous TFIIIC (30 μg, 1 μg/μl) cross-linked with H12/D12 DSS to 2 mM, 40 min at 37 °C; ld-score >25
T4 construct: τ95 (Tfc1), subunit of S. cerevisiae TFIIIC, endogenous subunit in the purified complex; source: endogenous, purified from S. cerevisiae strain SC2342 as part of TFIIIC (TAP tag on τ60)
T4 sequence (looked up): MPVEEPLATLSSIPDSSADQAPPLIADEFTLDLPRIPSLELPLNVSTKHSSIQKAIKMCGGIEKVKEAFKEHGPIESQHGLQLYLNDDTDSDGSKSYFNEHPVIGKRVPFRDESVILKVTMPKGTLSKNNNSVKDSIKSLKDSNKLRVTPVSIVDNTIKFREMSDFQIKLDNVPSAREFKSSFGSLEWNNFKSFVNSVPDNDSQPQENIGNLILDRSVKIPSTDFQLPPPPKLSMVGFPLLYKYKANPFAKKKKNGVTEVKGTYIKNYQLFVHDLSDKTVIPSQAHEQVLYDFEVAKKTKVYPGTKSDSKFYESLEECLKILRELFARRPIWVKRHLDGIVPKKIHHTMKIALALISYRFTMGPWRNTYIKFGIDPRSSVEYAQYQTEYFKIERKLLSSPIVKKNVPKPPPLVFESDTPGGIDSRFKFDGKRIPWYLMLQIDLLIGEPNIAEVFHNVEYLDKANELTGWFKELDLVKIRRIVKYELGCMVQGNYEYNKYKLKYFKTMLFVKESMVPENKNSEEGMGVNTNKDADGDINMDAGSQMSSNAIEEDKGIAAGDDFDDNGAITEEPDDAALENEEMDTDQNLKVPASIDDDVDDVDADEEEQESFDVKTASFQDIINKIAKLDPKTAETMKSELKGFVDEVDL

Binder	binding result [1]	binding result [2]	binding result [3]	binding result [4]
B1	binds	binds	binds	–
B2	–	–	–	binds
